What was measured:
[1] = substrate: CC(=O)N[C@H]1[C@@H](OP(=O)(O)OP(=O)(O)OC[C@H]2O[C@@H](n3ccc(=O)[nH]c3=O)[C@H](O)[C@@H]2O)O[C@H](CO)[C@@H](O)[C@@H]1O[C@H](C)C(=O)N[C@@H](C)C(=O)O; assay: orthophosphate release with calf intestinal alkaline phosphatase coupling; Michaelis-Menten fit of initial rates; assay type: biochemical, Streptococcus pneumoniae; conditions: 50 mM Tris pH 8.4, 5 mM MgCl2, 100 nM enzyme, 37°C for the relative activity assay
From the text: (§1) orthophosphate release with calf intestinal alkaline phosphatase coupling; Michaelis-Menten fit of initial rates on UDP-X diphosphatase (UDP-Xase), SP_1669

[2] = substrate: CC(=O)N[C@H]1[C@@H](OP(=O)(O)OP(=O)(O)OC[C@H]2O[C@@H](n3ccc(=O)[nH]c3=O)[C@H](O)[C@@H]2O)O[C@H](CO)[C@@H](O)[C@@H]1O[C@H](C)C(=O)O; assay: as above; assay type: biochemical, Streptococcus pneumoniae; conditions: 50 mM Tris pH 8.4, 5 mM MgCl2, 100 nM enzyme, 37°C for the relative activity assay
From the text: as §1

[3] = substrate: O=c1ccn([C@@H]2O[C@H](CO[P@@](=O)(O)O[P@@](=O)(O)O[C@H]3O[C@H](CO)[C@@H](O)[C@H](O)[C@H]3O)[C@@H](O)[C@H]2O)c(=O)[nH]1; assay: as above; assay type: biochemical, Streptococcus pneumoniae; conditions: 50 mM Tris pH 8.4, 5 mM MgCl2, 100 nM enzyme, 37°C for the relative activity assay
From the text: as §1

[4] = target: the molecule itself; assay: SEC; size-exclusion chromatography, data not shown
[5] = target: the molecule itself; assay: SAXS; small-angle X-ray scattering of the mutants in solution, 4.5 and 6 mg/mL; ab initio envelopes fitted with the wild-type crystal dimer (PDB 4HFQ)

B1: UDP-X diphosphatase from Streptococcus pneumoniae TIGR4 (SP_1669 gene product), wild type (enzyme, UniProt A0A0H2URA0 1-203, looked up)
chain: MKTSDFVKYLQRMIAITDTGLTFTKDPFDRERYEDLRSLLSEMLNQASDLDSEEVAEVLKPTSAYATPLMDVRAWIVEDEKICLVRGQGEDSWALPGGFGEVGYSPTENILKEIEEETGFKAKVERLLAVFDTNRFQLQSKQYTKFVFGCKLLDGQFQENQEIADLQFFAIDQLPNLSEKRITKEQIELLWQVYQGHRGQYLD
notes: Nudix hydrolase UDP-X diphosphatase encoded by gene SP_1669 of Streptococcus pneumoniae TIGR4; the gene was amplified from genomic DNA with NdeI and BamHI sites at its start and end; the structure describes residues 1-203 (N-terminal domain 1-59, loop 60-68, C-terminal catalytic domain 69-203); No tag is named; also called UDP-Xase; source: E. coli BL21(DE3), pET-24a, purified (ammonium sulfate, …)
Km [1]: 1600 ± 300 µM
Vmax [1]: 28.3 µM/min
kcat [1]: 4.7 ± 0.2 s⁻¹
kcat/Km [1]: 2900 ± 700 M⁻¹ s⁻¹
Km [2]: 3600 ± 400 µM
Vmax [2]: 17.7 µM/min
kcat [2]: 3 ± 0.1 s⁻¹
kcat/Km [2]: 800 ± 100 M⁻¹ s⁻¹
Km [3]: 2900 ± 1100 µM
Vmax [3]: 7 µM/min
kcat [3]: 1.2 ± 0.1 s⁻¹
kcat/Km [3]: 400 ± 200 M⁻¹ s⁻¹
stoichiometry N [4]: 2

B2: UDP-X diphosphatase E162A mutant (enzyme)
chain: MKTSDFVKYLQRMIAITDTGLTFTKDPFDRERYEDLRSLLSEMLNQASDLDSEEVAEVLKPTSAYATPLMDVRAWIVEDEKICLVRGQGEDSWALPGGFGEVGYSPTENILKEIEEETGFKAKVERLLAVFDTNRFQLQSKQYTKFVFGCKLLDGQFQENQAIADLQFFAIDQLPNLSEKRITKEQIELLWQVYQGHRGQYLD
notes: UDP-X diphosphatase encoded by gene SP_1669 of Streptococcus pneumoniae TIGR4, with E162A made by site-directed mutagenesis of the wild-type construct; Same construct as m1 apart from the mutation; also called UDP-Xase E162A; source: E. coli, expressed as the wild type, purified (ammonium sulfate, Phenyl FF, Source Q, Sephacryl S200)
binding result [5]: binds

B3: UDP-X diphosphatase E113A mutant (enzyme)
chain: MKTSDFVKYLQRMIAITDTGLTFTKDPFDRERYEDLRSLLSEMLNQASDLDSEEVAEVLKPTSAYATPLMDVRAWIVEDEKICLVRGQGEDSWALPGGFGEVGYSPTENILKAIEEETGFKAKVERLLAVFDTNRFQLQSKQYTKFVFGCKLLDGQFQENQEIADLQFFAIDQLPNLSEKRITKEQIELLWQVYQGHRGQYLD
notes: UDP-X diphosphatase encoded by gene SP_1669 of Streptococcus pneumoniae TIGR4, with E113A made by site-directed mutagenesis of the wild-type construct; Same construct as m1 apart from the mutation; also called UDP-Xase E113A; source: E. coli, expressed as the wild type, purified (ammonium sulfate, Phenyl FF, Source Q, Sephacryl S200)
stoichiometry N [5]: 2

From PMC3655063, “A UDP-X Diphosphatase from Streptococcus pneumoniae Hydrolyzes Precursors of Peptidoglycan Biosynthesis” (PLoS ONE, 2013)
